One block for each compound: values may come before it. Ends that are not written are not given here.
Key:
G252S hMC4R = target: T1, G252S hMC4R (Homo sapiens, UniProt P32245, G252S); assay: cAMP based functional bioassay, antagonist Schild analysis against agonist MTII; assay type: cell-based; conditions: ± SEM
T1 construct: expressed in transfected cells

S127L hMC4R = target: T2, S127L hMC4R (Homo sapiens, UniProt P32245, S127L); assay: as above; assay type: cell-based
T2 construct: expressed in transfected cells

R165Q hMC4R = target: T3, R165Q hMC4R (Homo sapiens, UniProt P32245, R165Q); assay: as above; assay type: cell-based; conditions: ± SEM
T3 construct: expressed in transfected cells

wild type (WT) hMC4R = target: T4, wild type (WT) hMC4R (Homo sapiens, UniProt P32245); assay: as above; assay type: cell-based; conditions: ± SEM
T4 construct: expressed in transfected cells

L106P hMC4R [1] = target: T5, L106P hMC4R (Homo sapiens, UniProt P32245, L106P); assay: as above; assay type: cell-based; conditions: ± SEM
T5 construct: expressed in transfected cells

I137T hMC4R = target: T6, I137T hMC4R (Homo sapiens, UniProt P32245, I137T); assay: as above; assay type: cell-based; conditions: ± SEM
T6 construct: expressed in transfected cells

C271Y hMC4R [2] = target: T7, C271Y hMC4R (Homo sapiens, UniProt P32245, C271Y); assay: as above; assay type: cell-based; conditions: ± SEM
T7 construct: expressed in transfected cells

I301T hMC4R = target: T8, I301T hMC4R (Homo sapiens, UniProt P32245, I301T); assay: as above; assay type: cell-based; conditions: ± SEM
T8 construct: expressed in transfected cells

N97D hMC4R = target: T9, N97D hMC4R (Homo sapiens, UniProt P32245, N97D); assay: as above; assay type: cell-based
T9 construct: expressed in transfected cells

T150I hMC4R = target: T10, T150I hMC4R (Homo sapiens, UniProt P32245, T150I); assay: as above; assay type: cell-based; conditions: ± SEM
T10 construct: expressed in transfected cells

R165W hMC4R = target: T11, R165W hMC4R (Homo sapiens, UniProt P32245, R165W); assay: as above; assay type: cell-based; conditions: ± SEM
T11 construct: expressed in transfected cells

V253I hMC4R = target: T12, V253I hMC4R (Homo sapiens, UniProt P32245, V253I); assay: as above; assay type: cell-based; conditions: ± SEM
T12 construct: expressed in transfected cells

S58C hMC4R [3] = target: T13, S58C hMC4R (Homo sapiens, UniProt P32245, S58C); assay: as above; assay type: cell-based; conditions: ± SEM
T13 construct: expressed in transfected cells

I102S hMC4R = target: T14, I102S hMC4R (Homo sapiens, UniProt P32245, I102S); assay: as above; assay type: cell-based; conditions: ± SEM
T14 construct: expressed in transfected cells

C271Y hMC4R [4] = target: T7, C271Y hMC4R; assay: cAMP based functional bioassay, agonist stimulation, stably transfected HEK-293 cells; assay type: cell-based
S58C hMC4R [5] = target: T13, S58C hMC4R; assay: as above; assay type: cell-based; conditions: S58C hMC4R as printed; at up to 10^−5 M concentrations
L106P hMC4R [6] = target: T5, L106P hMC4R; assay: as above; assay type: cell-based; conditions: HEK293, L106P hMC4R, read-out: stimulation (maximal stimulation less than the forskolin control level)
polymorphic hMC4Rs = assay: cAMP based functional bioassay, summary statements for the polymorphic hMC4Rs as a group; assay type: cell-based, human
[7] = Schild analysis, agonist MTII, ± SEM

- Antagonist pA2 (G252S hMC4R): 8.53 ± 0.02
- antagonist potency relative to the wild type control (S127L hMC4R): statistically significant decreased
- Antagonist pA2 (S127L hMC4R; [7]): 7.06 ± 0.16
- Antagonist pA2 (R165Q hMC4R): 8.57 ± 0.06
- Antagonist pA2 (wild type (WT) hMC4R): 8.28 ± 0.11
- Antagonist pA2 (L106P hMC4R [1]): 8.27 ± 0.12
- Antagonist pA2 (I137T hMC4R): 8.33 ± 0.12
- Antagonist pA2 (C271Y hMC4R [2]): 8.45 ± 0.03
- Antagonist pA2 (I301T hMC4R): 8.60 ± 0.07
- antagonist potency relative to the wild type control (N97D hMC4R): statistically significant decreased
- Antagonist pA2 (N97D hMC4R; [7]): 7.44 ± 0.11
- Antagonist pA2 (T150I hMC4R): 8.34 ± 0.06
- Antagonist pA2 (R165W hMC4R): 8.52 ± 0.17
- Antagonist pA2 (V253I hMC4R): 8.41 ± 0.17
- Antagonist pA2 (S58C hMC4R [3]): 8.02 ± 0.13
- Antagonist pA2 (I102S hMC4R): 8.17 ± 0.10
Compound: hAGRP(87-132): endogenous C-terminal antagonist agouti-related protein ligand, purchased from Peptides International

- response stimulated (C271Y hMC4R [4]; C271Y hMC4R): maximal response
Compound: CSCC[C@H](NC(=O)[C@H](CCCNC(=N)N)NC(=O)[C@H](Cc1ccc(O)cc1)NC(=O)[C@@H]1CCCN1C(=O)CNC(=O)[C@H](CCC(=O)O)NC(=O)[C@H](CC(=O)O)NC(=O)[C@H](CCCCN)NC(=O)[C@H](CCCCN)NC(=O)[C@H](CCC(=O)O)NC(=O)[C@H](C)N)C(=O)N[C@@H](CCC(=O)O)C(=O)N[C@@H](Cc1c[nH]cn1)C(=O)N[C@@H](Cc1ccccc1)C(=O)N[C@@H](CCCNC(=N)N)C(=O)N[C@@H](Cc1c[nH]c2ccccc12)C(=O)NCC(=O)N[C@@H](CO)C(=O)N1CCC[C@H]1C(=O)N1CCC[C@H]1C(=O)N[C@@H](CCCCN)C(=O)N[C@@H](CC(=O)O)C(=O)O [β-MSH]

- Emax at 1 µM (C271Y hMC4R [4]; HEK293, C271Y hMC4R, at 1 μM, read-out: stimulation (maximal stimulation less than the forskolin control level)): 42 to 58%
- ability to stimulate this receptor (S58C hMC4R [5]): inability
- Emax at 1 µM (L106P hMC4R [6]): 40 to 50%
Compound: SYSMEHFRWGKPVGKKRRPVKYPN [ACTH(1-24)]

- agonist EC50 potency (polymorphic hMC4Rs; at all these polymorphic hMC4Rs): sub nM to mM
Compound: C[C@@H]1NC(=O)[C@H](CC(N)=O)NC(=O)[C@H](Cc2c[nH]c3ccccc23)NC(=O)[C@H](CCCNC(=N)N)NC(=O)[C@@H](Cc2ccccc2)NC(=O)[C@H](Cc2c[nH]cn2)NC(=O)[C@@H](NC(=O)[C@@H](N)Cc2ccc(O)cc2)CSSC[C@@H](C(=O)N[C@@H](Cc2ccc(O)cc2)C(N)=O)NC(=O)[C@H](Cc2ccccc2)NC1=O [AMW3-130, Tyr-c[Cys-His-DPhe-Arg-Trp-Asn-Ala-Phe-Cys]-Tyr-NH2]
- agonist function at these hMC4Rs (polymorphic hMC4Rs; eleven human MC4R polymorphisms): rescue

From patent US8058240B2, “Biological active ligands of melanocortin receptors” (University of Florida Research Foundation, Inc., priority 2006, dated 2011)
